Laboratory results published in US20210024620A1.
Blank lines part the entries; values can stand above or below the substance they belong to.

Columns and labels:
[1] = biological target: biotinylated human FcRn (human) (UniProt P55899); assay: Biacore, biotin-captured hFcRn, pH 6.0
[2] = biological target: Human CD16a (FcγRIIIa residues 17-208 with C-terminal HPC4 tag and valine at position 158) (human) (UniProt P08637); assay: Biacore SPR, HPC4-tagged FcγRIIIa-V158 captured by anti-HPC4, pH 7.4
Human CD16a (FcγRIIIa residues 17-208 with C-terminal HPC4 tag and valine at position 158) (human), sequence (P08637 17-208 F176V): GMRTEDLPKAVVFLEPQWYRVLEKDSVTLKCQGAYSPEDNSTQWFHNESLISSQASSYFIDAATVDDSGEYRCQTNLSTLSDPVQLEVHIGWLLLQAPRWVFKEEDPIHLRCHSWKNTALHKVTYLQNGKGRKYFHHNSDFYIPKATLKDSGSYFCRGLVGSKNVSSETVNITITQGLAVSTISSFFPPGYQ

[3] = biological target: biotinylated human FcRn (human) (UniProt P55899); assay: Biacore SPR, pH 7.4
rat FcRn (rat) [4] = biological target: rat FcRn (rat) (UniProt P13599); assay: Biacore SPR, pH 7.4
rat FcRn (rat), sequence (P13599 23-298 limits assumed, chain 1 of 2): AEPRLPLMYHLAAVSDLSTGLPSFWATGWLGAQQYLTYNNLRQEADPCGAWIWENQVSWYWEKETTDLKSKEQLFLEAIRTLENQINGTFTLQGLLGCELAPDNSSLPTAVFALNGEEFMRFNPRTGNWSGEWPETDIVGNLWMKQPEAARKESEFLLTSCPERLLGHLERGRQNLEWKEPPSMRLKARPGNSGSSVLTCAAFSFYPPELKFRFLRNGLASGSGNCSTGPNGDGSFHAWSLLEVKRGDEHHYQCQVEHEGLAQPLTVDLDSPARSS
rat FcRn (rat), sequence (P07151 21-119 limits assumed, chain 2 of 2, further chain): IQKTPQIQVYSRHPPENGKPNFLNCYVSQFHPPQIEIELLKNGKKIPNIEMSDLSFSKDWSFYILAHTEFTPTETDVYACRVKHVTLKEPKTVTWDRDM

rat FcRn (rat) [5] = biological target: rat FcRn (rat) (UniProt P13599); assay: Biacore SPR, pH 6.0
rat FcRn (rat) [6] = biological target: rat FcRn (rat) (UniProt P13599); assay: Biacore SPR, pH 6.0; remark: listed apart in the source
rat FcRn (rat) [7] = biological target: rat FcRn (rat) (UniProt P13599); assay: Biacore, pH 6.0, apparent KD
[8] = biological target: biotinylated human FcRn (p51 subunit residues 24-297 with C-terminal Avi-tag; beta2-microglobulin residues 21-119) (human) (UniProt P55899); assay: Biacore SPR, pH 7.4, steady state
[9] = biological target: biotinylated human FcRn (human) (UniProt P55899); assay: Biacore, pH 7.4, steady state response
rat FcRn (rat) [10] = biological target: rat FcRn (rat) (UniProt P13599); assay: Biacore, pH 7.4, steady state response
[11] = biological target: Human CD16a (FcγRIIIa V158) with C-terminal HPC4 tag (human) (UniProt P08637); assay: Biacore, FcγRIIIa V158 captured, steady-state fit, apparent KD
Human CD16a (FcγRIIIa V158) with C-terminal HPC4 tag (human), sequence (P08637 17-208 F176V): as the sequence (P08637 17-208 F176V) above

[12] = biological target: FcRn immobilised on the FcRn affinity column (biotinylated cynoFcRn in one experiment, biotinylated hFcRn in another); assay: FcRn affinity chromatography, linear pH gradient; species of the immobilised FcRn not given
[13] = biological target: biotinylated cynomolgus FcRn (cynomolgus) (UniProt Q8SPV9); assay: Biacore, pH 7.4, steady state response
mouse FcRn (mouse) = mouse FcRn (mouse) (UniProt Q61559); assay: Biacore, pH 7.4, steady state response
[14] = biological target: Human CD16a (FcγRIIIa V158) with C-terminal HPC4 tag (human) (UniProt P08637); assay: Biacore, FcγRIIIa V158 captured, relative to WT of the same backbone
rat FcRn (rat) [15] = biological target: rat FcRn (rat) (UniProt P13599); assay: Biacore, pH 6.0
rat FcRn (rat) [16] = biological target: rat FcRn (rat) (UniProt P13599); assay: Octet BLI, pH 6.0
rat FcRn (rat) [17] = biological target: rat FcRn (rat) (UniProt P13599); assay: Biacore SPR, pH 7.4, 1000 nM antibody
[18] = biological target: biotinylated human FcRn (human) (UniProt P55899); assay: Biacore, pH 6.0
[19] = biological target: biotinylated human FcRn (human) (UniProt P55899); assay: Biacore SPR, pH 6.0
[20] = biological target: biotinylated human FcRn (human) (UniProt P55899); assay: Biacore, pH 6.0, apparent KD
[21] = biological target: biotinylated human FcRn (human) (UniProt P55899); assay: Biacore SPR, pH 7.4, 1000 nM antibody
[22] = biological target: biotinylated human FcRn (p51 subunit residues 24-297 with C-terminal Avi-tag; beta2-microglobulin residues 21-119) (human) (UniProt P55899); assay: Biacore SPR, pH 6.0
[23] = biological target: biotinylated human FcRn (human) (UniProt P55899); assay: Biacore, biotin-captured hFcRn, pH 7.4
[24] = biological target: biotinylated human FcRn (human) (UniProt P55899); assay: Biacore, biotin-captured hFcRn, pH 8.0
[25] = biological target: biotinylated cynomolgus FcRn (cynomolgus) (UniProt Q8SPV9); assay: Biacore, biotin-captured cFcRn, pH 6.0
[26] = biological target: biotinylated cynomolgus FcRn (cynomolgus) (UniProt Q8SPV9); assay: Biacore, biotin-captured cFcRn, pH 7.4
[27] = biological target: biotinylated cynomolgus FcRn (cynomolgus) (UniProt Q8SPV9); assay: Biacore, biotin-captured cFcRn, pH 8.0
[28] = biological target: biotinylated human FcRn (human) (UniProt P55899); assay: Biacore, biotin-captured hFcRn, pH 7.4, 1000 nM antibody
[29] = biological target: biotinylated human FcRn (human) (UniProt P55899); assay: Biacore, biotin-captured hFcRn, pH 8.0, 1000 nM antibody
[30] = biological target: biotinylated cynomolgus FcRn (cynomolgus) (UniProt Q8SPV9); assay: Biacore, biotin-captured cFcRn, pH 7.4, 1000 nM antibody
[31] = biological target: biotinylated cynomolgus FcRn (cynomolgus) (UniProt Q8SPV9); assay: Biacore, biotin-captured cFcRn, pH 8.0, 1000 nM antibody
[32] = biological target: biotinylated cynomolgus FcRn (cynomolgus) (UniProt Q8SPV9); assay: Biacore, biotin-captured cFcRn, pH 9.0, 1000 nM antibody

Substance: YTEKF benchmark (M252Y/S254T/T256E/H433K/N434F) hIgG1 (antibody)
FcγRIIIa Binding Steady State RU [2]: 207 RU

Substance: mAb1 YDTN (M252Y/T256D) (antibody)
Steady State RU [3]: 9.7 RU
Steady State RU (rat FcRn (rat) [4]): 56 RU
Kd (rat FcRn (rat) [5]): 5.9 nM
Kd (rat FcRn (rat) [6]): 5.86 nM
Kd (rat FcRn (rat) [7]): 5.9 nM
Steady State Binding, pH 7.4 (RU) [8]: 9.7 RU
Steady State RU [9]: 9.7 RU
Steady State RU (rat FcRn (rat) [10]): 56 RU
Kd [11]: 1060 nM
FcRn affinity column elution pH [12]: 8.29 pH

Substance: mAb2 YD (M252Y/T256D) (antibody)
Steady State RU [13]: 22 RU
Steady State RU [9]: 27 RU
Steady State RU (mouse FcRn (mouse)): 394 RU
FcγRIIIa V158 Affinity Fold Change (fold relative to WT) [14]: 0.58

Substance: mAb1 AAA (T307A/E380A/N434A) (antibody)
koff (rat FcRn (rat) [15]): 0.0117 s⁻¹
kon (rat FcRn (rat) [15]): 157000 M⁻¹ s⁻¹
koff (rat FcRn (rat) [16]): 0.00377 s⁻¹
Kd (rat FcRn (rat) [6]): 77 nM
koff (rat FcRn (rat) [6]): 0.0117 s⁻¹
kon (rat FcRn (rat) [6]): 157000 M⁻¹ s⁻¹
Kd (rat FcRn (rat) [7]): 77 nM
Steady State RU (rat FcRn (rat) [17]): 23.6 RU
Steady State RU (rat FcRn (rat) [10]): 23.6 RU
Kd [11]: 450 nM
FcRn affinity column elution pH [12]: 7.94 pH

Substance: mAb1 T307E (antibody)
koff [18]: 0.3 s⁻¹
kon [18]: 44000 M⁻¹ s⁻¹
koff (rat FcRn (rat) [15]): 0.006 s⁻¹
kon (rat FcRn (rat) [15]): 56000 M⁻¹ s⁻¹
koff (rat FcRn (rat) [16]): 0.00329 s⁻¹
Kd [19]: 8130 nM
koff [19]: 0.298 s⁻¹
kon [19]: 43700 M⁻¹ s⁻¹
Kd (rat FcRn (rat) [6]): 141 nM
koff (rat FcRn (rat) [6]): 0.00603 s⁻¹
kon (rat FcRn (rat) [6]): 55500 M⁻¹ s⁻¹
Kd [20]: 8130 nM
Kd (rat FcRn (rat) [7]): 141 nM
Steady State RU [21]: 5.7 RU
Steady State RU (rat FcRn (rat) [17]): 21.5 RU
FcRn affinity column elution pH [12]: 7.58 pH

Next, values leading:

Kd [1]: 15 nM
koff [1]: 0.0121 s⁻¹
kon [1]: 790000 M⁻¹ s⁻¹
FcγRIIIa Binding Steady State RU [2]: 226 RU
Substance: mAb1 YEQF (M252Y/T256E/T307Q/N434F) (antibody)

Steady State RU [13]: 38 RU
Steady State RU [9]: 44 RU
Steady State RU (mouse FcRn (mouse)): 285 RU
FcγRIIIa V158 Affinity Fold Change (fold relative to WT) [14]: 1.23
Substance: mAb2 LS (M428L/N434S) (antibody)

Ka [22]: 1.66e+08 M⁻¹
Steady State Binding, pH 7.4 (RU) [8]: 71.8 RU
Kd [23]: 194 nM
Kd [24]: 1300 nM
Kd [25]: 8.6 nM
Kd [26]: 115 nM
Kd [27]: 680 nM
Steady State RU [28]: 124 RU
Steady State RU [29]: 235 RU
Steady State RU [30]: 173 RU
Steady State RU [31]: 313 RU
Steady State RU [32]: 4.6 RU
FcγRIIIa Binding Steady State RU [2]: 128 RU
Substance: mAb1 YDWF (M252Y/T256D/T307W/N434F) (antibody)
